Results: patent US20190060453A1 (ONCOMED PHARMACEUTICALS, published 2019)

Tests used:
[1] = molecular target: T1, DLL4 antigen protein (recombinant fragment of the extracellular domain of human DLL4, amino acids 1-522, Fc- … (human, UniProt Q9NR61 27-522)); assay: Biacore; antibody purified by protein A; DLL4 form and format not stated
T1 construct: also called Human DLL4 Antigen; not shown: human Fc-tag or histidine-tag

[2] = molecular target: T1, DLL4 antigen protein (recombinant …); assay: ELISA of conditioned medium, HEK 293 cells cotransfected with the murine 21M18 light chain
Experimental: The functionality of each candidate variant humanized heavy and light chain was tested by cotransfection into mammalian cells.

[3] = molecular target: T1, DLL4 antigen protein (recombinant …); assay: ELISA of conditioned medium, HEK293 cells
Description: These heavy chains were cotransfected into HEK293 cells with L2, and conditioned media was again assayed.

[4] = molecular target: T2, human DLL4, full-length, on the surface of transfected cells (human, UniProt Q9NR61 27-685); assay: FACS on HEK 293 cells co-transfected with full-length DLL4 and GFP
T2 construct: whole, on cells; HEK 293 cells (transient with GFP, or stably transduced) and 3T3 cells overexpressing human DLL4; also called native cell-surface DLL4 protein; Delta-like ligand 4

[5] = molecular target: T3, murine DLL4-Fc (murine, UniProt Q9JI71 27-525, limits assumed); assay: FACS-based assay with human or murine DLL4-Fc (FIG. 2B)
T3 construct: also called m-DLL4; not shown: Fc
T3 sequence (Q9JI71 27-525 limits assumed): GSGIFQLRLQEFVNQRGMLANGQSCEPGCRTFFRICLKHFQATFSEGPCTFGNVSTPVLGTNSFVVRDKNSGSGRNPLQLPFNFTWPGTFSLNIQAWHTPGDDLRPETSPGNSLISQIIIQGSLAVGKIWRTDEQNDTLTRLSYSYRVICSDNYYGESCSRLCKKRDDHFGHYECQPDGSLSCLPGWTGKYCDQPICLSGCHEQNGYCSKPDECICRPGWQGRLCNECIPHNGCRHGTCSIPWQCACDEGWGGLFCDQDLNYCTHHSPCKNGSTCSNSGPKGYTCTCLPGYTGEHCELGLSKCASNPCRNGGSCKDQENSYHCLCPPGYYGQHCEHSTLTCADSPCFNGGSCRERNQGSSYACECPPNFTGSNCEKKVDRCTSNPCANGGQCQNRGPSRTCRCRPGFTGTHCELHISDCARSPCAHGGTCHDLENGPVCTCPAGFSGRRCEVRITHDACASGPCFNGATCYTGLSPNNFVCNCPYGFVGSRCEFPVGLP
Description: Binding was detected by fluorescently labeled anti-Fc and analyzed by FACS, with high fluorescence intensity indicative of binding between DLL4 and Notch1 expressing cells.

[6] = molecular target: T4, human DLL4 aa 1-283 fused to Fc (human, UniProt Q9NR61 27-283); assay: ELISA, Fc fusion captured by anti-human Fc
T4 construct: Predicted signal peptide 1-26 left out; not shown: Fc protein
Experimental: (§1) To identify antibodies that recognize specific regions of the DLL4 extracellular domain, epitope mapping was performed. Mammalian expression plasmid vectors comprising a CMV promoter upstream of polynucleotides that encode a nested series of deletion fragments of the extracellular domain of DLL4 fused to Fc protein were generated using standard recombinant DNA technology. Additional constructs that encoded fragments of DLL4 that were chimera of human and mouse DLL4 fused to Fc protein were also generated using standard recombinant DNA technology. A further series of DLL4-fc fusion proteins were designed that included specific amino acid substitutions. These recombinant fusion proteins were expressed in transiently transfected HEK 293 cells from which conditioned medium was collected twenty-four to forty-eight hours post-transfection for ELISA. The DLL4 fusion protein fragments were captured on plates coated with anti-human Fc antibodies. Anti-DLL4 antibodies were then allowed to interact with the bound DLL4 fragments and binding was measured by subsequent incubation with HRP conjugated anti-mouse antibody and detection of HRP activity (FIG. 3A). […] Additionally, anti-DLL4 mAbs were examined for binding to DLL4 fusion protein fragments by western blot analysis (FIG. 3B).

[7] = molecular target: T5, human DLL4 aa 1-323 fused to Fc (human, UniProt Q9NR61 27-323); assay: ELISA, Fc fusion captured by anti-human Fc
T5 construct: Predicted signal peptide 1-26 left out; also called aa 1-323 (printed as 1-323); not shown: Fc protein
Experimental: as §1

[8] = molecular target: T6, human DLL4 aa 1-154 fused to Fc (human, UniProt Q9NR61 27-154); assay: ELISA, Fc fusion captured by anti-human Fc
T6 construct: predicted signal peptide 1-26 left out; also called h-DLL4 dom1-2; not shown: Fc protein
Experimental: as §1

[9] = molecular target: T7, human DLL4 aa 1-251 fused to Fc (human, UniProt Q9NR61 27-251); assay: ELISA, Fc fusion captured by anti-human Fc
T7 construct: Predicted signal peptide 1-26 left out; also called aa 1-251 (printed as 1-251); not shown: Fc protein
Experimental: as §1

[10] = molecular target: T8, human DLL4 aa 1-96 fused to Fc (human, UniProt Q9NR61 27-96); assay: ELISA, Fc fusion captured by anti-human Fc
T8 construct: Printed as aa 1-96; not shown: Fc protein (human Fc by the capture and detection reagents)
Experimental: as §1

[11] = molecular target: T9, human DLL4 aa 1-217 fused to Fc (human, UniProt Q9NR61 27-217); assay: ELISA, Fc fusion captured by anti-human Fc
T9 construct: predicted signal peptide 1-26 left out; also called hDLL4dom1-3; not shown: Fc protein
Experimental: as §1

B1: humanized 21M18 variant H2L2 (antibody, V domains shown)
VH: QVQLVQSGAEVKKPGASVKISCKASGYSFTAYYIHWVKQAPGQGLEWIGYISCYNGATNYNQKFKGRVTFTTDTSTSTAYMELRSLRSDDTAVYYCARDYDYDVGMDYWGQGTLVTVSS
VL: DIVMTQSPDSLAVSLGERATISCRASESVDNYGISFMKWFQQKPGQPPKLLIYAASNQGSGVPDRFSGSGSGTDFTLTISSLQAEDVAVYYCQQSKEVPWTFGGGTKVEIK
notes: also called 21M18 H2L2; 21M18 H2 with 21M18 L2
Question: Which Kd [1] does the source give for B1 here?
Answer: ~0.33 nM

B2: 21M18 H2 humanized heavy chain cotransfected with the murine 21M18 light chain (antibody, V domains shown)
VH: QVQLVQSGAEVKKPGASVKISCKASGYSFTAYYIHWVKQAPGQGLEWIGYISCYNGATNYNQKFKGRVTFTTDTSTSTAYMELRSLRSDDTAVYYCARDYDYDVGMDYWGQGTLVTVSS
VL: not shown
notes: Tested as conditioned medium of HEK 293 cells; heavy chain on human IgG2 constant region; also called 21M18 H2 (with murine 21M18 light chain)
Question: Does B2 bind [2]?
Answer: binds

B3: humanized 21M18 H9L2 (antibody, human IgG2, V domains shown)
VH: QVQLVQSGAEVKKPGASVKISCKASGYSFTAYYIHWVKQAPGQGLEWIGYISVYNGATNYNQKFKGRVTFTTDTSTSTAYMELRSLRSDDTAVYYCARDYDYDVGMDYWGQGTLVTVSS
VL: DIVMTQSPDSLAVSLGERATISCRASESVDNYGISFMKWFQQKPGQPPKLLIYAASNQGSGVPDRFSGSGSGTDFTLTISSLQAEDVAVYYCQQSKEVPWTFGGGTKVEIK
notes: Variant of H2 with Kabat 52a Cys changed to Val; also called ATCC PTA-8427
Question: Does B3 bind [3]?
Answer: binds

B4: humanized 21M18 H7L2 (antibody, human IgG2, V domains shown)
VH: QVQLVQSGAEVKKPGASVKISCKASGYSFTAYYIHWVKQAPGQGLEWIGYISSYNGATNYNQKFKGRVTFTTDTSTSTAYMELRSLRSDDTAVYYCARDYDYDVGMDYWGQGTLVTVSS
VL: DIVMTQSPDSLAVSLGERATISCRASESVDNYGISFMKWFQQKPGQPPKLLIYAASNQGSGVPDRFSGSGSGTDFTLTISSLQAEDVAVYYCQQSKEVPWTFGGGTKVEIK
notes: Variant of H2 with Kabat 52a Cys changed to Ser; also called H7L2 21M18; ATCC PTA-8425
Question: Does B4 bind [3]?
Answer: binds

B5: murine monoclonal antibody 21M18 (antibody, V domains shown)
VH: EVQLQQSGPELVKTGASVKISCKASGYSFTAYYIHWVKQSHGKSLEWIGYISCYNGATNYNQKFKGKATFTVDTSSSTAFMQFNSLTSEDSAVYYCARDYDYDVGMDYWGQGTSVTVSS
VL: not shown
notes: Hybridoma-derived mouse antibody; both are alignment entries; also called m21M18; anti-DLL4 21M18
Question: Does B5 bind [4]?
Answer: binds

Question: Does B5 bind [5]?
Answer: no binding

Question: Does B5 bind [6]?
Answer: binds

Question: Does B5 bind [7]?
Answer: binds

Question: Does B5 bind [8]?
Answer: no binding

Question: Does B5 bind [9]?
Answer: binds

Question: Does B5 bind [10]?
Answer: no binding

Question: Does B5 bind [11]?
Answer: binds
